Laboratory results taken from patent US20230364228A1.

Assays:
[1] = biological target: highest binding amyloid (in vitro); experiment: in vitro binding to amyloid, format not stated
[2] = biological target: highest binding amyloid (in vitro); experiment: calculated from in vitro binding to amyloid, format not stated

B1: antibody having a heavy chain variable domain (VH) of SEQ ID NO:1 and a light chain variable domain (VL) of SEQ ID NO:2 (CAEL101) (antibody, IgG1, V domains shown)
VH: QVQLKESGPGLVAPSQSLSITCTVSGFSLSSYGVSWVRQPPGKGLEWLGVIWGDGSTNYHPNLMSRLSISKDISKSQVLFKLNSLQTDDTATYYCVTLDYWGQGTSVTVSS
VL: DVVMTQTPLSLPVSLGDQASISCRSSQSLVHRNGNTYLHWYLQKPGQSPKLLIYKVSNRFSGVPDRFSGSGSGTDFTLKISRVEAEDLGLYFCFQTTYVPNTFGGGTKLEIK
In the case of B1, the EC50 [1] is reported as 157 µg/mL and the Michaelis-Menton (MM) EC 90 (calculated) [2] is reported as 36.5 µg/mL.
